Results reported in patent publication US20140037626A1, “Metal Abstraction Peptide With Release of Metal” (Echogen, Inc., priority 2012, published 2014).
Ends that are not written are not given here.

Assays:
[1] = pH-dependent release of nickel from MAP peptides by absorption spectroscopy; assay type: physicochemical; settings: FIG. 9; intensity at 415 nm with decreasing pH
Protocol: The loss of absorbance intensity corresponds to loss of metal from the complex, as the absorption features that are observed for Ni-MAP are due to ligand to metal charge transfer (LMCT) bands and d to d transitions. By monitoring the intensity of one specific peak (415 nm for the pentapteptide) with decreasing pH, the percent of the complex remaining at each pH unit was calculated and plotted (FIG. 9).
pH release experiments were then performed (FIG. 16), and release curves were prepared for each of the six peptides (FIG. 17).

[2] = pH-dependent release of platinum from MAP peptides (absorption, NMR, MS); assay type: physicochemical; settings: low pH (pH 2.47 with excess ammonium chloride in FIG. 10)
Protocol: Because Pt is bound to ammonia and chloride ligands in the common inorganic complex cisplatin, the release experiment was also performed in the presence of excess ammonium chloride. […] Additionally, ^1H NMR of the GGNCC (SEQ ID NO.:1), and Pt-GGNCC (SEQ ID NO.:1) at low pH were all performed.
MS data was obtained at low pH when solvent (DMSO) was added to the peptide-metal complex before dropping the pH, to keep some of the species that result from metal release soluble. Although a small amount of a yellow precipitate formed, the peptide returned to the apo state and remained in solution as determined by MS (FIG. 12). By adding DMSO to the solution, a similar release experiment was performed using absorption spectroscopy. […] The loss of absorbance intensity corresponded to loss of metal from the complex. The loss of intensity was monitored at 315 nm, as this is a significant, yet unique, feature in the Pt-NCC spectral profile, and pH dependent release curve was prepared (FIG. 13).

Row | Substance | pH range in which pH-dependent release of nickel occurs rapidly [1] | precipitation of the Pt-peptide complex at low pH [2]
1 | GNNCC: nickel complex of the pentapeptide GNNCC (SEQ ID NO.:2) (cysteine pairing not given here; also: nickel complex) | 6-7 pH | –
2 | Pt-GGNCC: platinum complex of the pentapeptide GGNCC (SEQ ID NO.:1) (cysteine pairing not given here; also: platinum complex) | – | Precipitation occurred
